For the assay, the target named is Knob F241R/F243S (knob Fc with F241R/F243S mutations) (human) [IgG part: P0DOX5]. Description: size exclusion chromatography, against wild-type knob Fc. On the technique in general: In gel filtration, larger molecules generally elute earlier.

Turning to “Knob F241R/F243S (knob Fc with F241R/F243S mutations) (from UniProt P0DOX5 223-449)”, the Reduction in homodimer content was found to be 64.5%.

The record behind these values is patent EP2670776B1.
